Literature values, collected in publication PMC4618177.
pKd: −log10 of the molar value. Like-named read-outs stand apart in the source and are kept apart here.

Assays:
[1] = target: IAA17 PB1 (Arabidopsis thaliana) (UniProt P93830)
[2] = target: ARF5 PB1 (Arabidopsis thaliana) (UniProt P93024)
[3] = target: IAA17 PB1 (Arabidopsis thaliana) (UniProt P93830); remark: listed apart in the source

Q: With ARF5 PB1 (from UniProt P93024) as the substance, how does the pKd [1] read?
A: Its pKd is 7.14.

Q: What about the pKd [2] of the same substance?
A: Its pKd is 6.07.

Q: With IAA17 PB1 (from UniProt P93830) as the substance, how does the pKd [3] read?
A: The pKd was 5.18.
